Values quoted from earlier work, collected in publication PMC4944212.
Read-outs that look alike come from different tables or passages of the source.

Key:
[1] = target: SosCat SosCat (Homo sapiens) (UniProt Q07889); experiment: fluorescence titration
[2] = target: SosCat SosCat catalytic site (Homo sapiens) (UniProt Q07889)
[3] = target: SosCat SosCat (Homo sapiens) (UniProt Q07889)

Kd [1]: 5 µM
Kd [2]: 21 µM
Kd [3]: 54 µM
Substance: H-Ras (from UniProt P01112)
